Reference: a protein production outcome set (Wang et al. 2014)

Experiment: label from the status in PepcDB records
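Note: failed if final PepcDB status was selected cloned or expressed and not failed if soluble or beyond.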

Sequence | protein production
STHKLIRQDNSELIYYLDKQAEHNKTLLVLMQGSDCNSIKNNTFIQETFGRWLPSSDVLMVEKYGITAQLTYSDDNGEREDCPKNYKLHDNPNQRLADYLAVLDKLSPNYTNIVLLGGSEGATMVHLVVAERHDISAAIALNGGGRFFLDDVLYNIRNTTPKEHVEEAINSFQQLANAIITNQIGDEQFVSEHSKLWWQQYLAIDLLEVIKRNTQTPVLIVQTLDDINVDVAAFHQLSQEITQPNVTFIKYDKLNHGFYNQQGERLTGKVVQDIQQWYAQYNK | not failed
MSLFTCEDPAVWKAVHNKYWTVVEAKSAGKRKTSGKLLQLDKWFQEDLPAAITARPERFLTHAELVKIMEWKLTKGKFRPRLQQLIGSNNEEAVQSSSSKAFSLLPDVQAAIKELCKLKGVGSATASAVLVAGAPDKVAFMADEAVESIAELRPVEYTDKHYALYLQKMLWKTSELNKVDAQQDWTPHRVEQCLWTWTVANQIQPSLLQGVSLKDATNQKPEKRKTADEKPSKRKKTE | failed
MNNVTTTLTDTTWYKAGTITDVPENGGACAMIQGKQIAIFNFTRRDEWFATDNLCPHKQQMILSRGMIGDMSEEPKVACPFHKKSFSLKDGHCMSGDDYTIKTYPIKVEDGLIFIGLNE | failed
MEFPKMLTRKIKLWDINAHITCRLCSGYLIDATTVTECLHTFCRSCLVKYLEENNTCPTCRIVIHQSHPLQYIGHDRTMQDIVYKLVPGLQEAEMRKQREFYHKLGMEVPGDIKGETCSAKQHLDSHRNGETKADDSSNKEAAEEKPEEDNDYHRSDEQVSICLECNSSKLRGLKRKWIRCSAQATVLHLKKFIAKKLNLSSFNELDILCNEEILGKDHTLKFVVVTRWRFKKAPLLLHYRPKMDLL | failed
MNRRDFLQFGLRGIVVAGLGKGFYNTTSEQVEIVRTSVKIRNLPAALQGLKIGLLTDLHASFVVSSETIRSAGRLLMAEKPDLIVMTGDYISGSTRFLSGSVGQFKKEYLSKCIDALSGLKAPLGIYGVLGNHDFWSGPESVKAICEAFTRQMGMVWLRNSSVEIRRGRGSLHLLGVDDYWEPSCSLAAACKGVDTDGIKILLSHNPDINDEIFLLRERIDLVLSGHTHGGQVVVPFLGQPVMPSKFGQKYRAGLVRDGDRQTYISRGVGCLLAPIRLNCPPEATVLTLTLEHHHHHH | not failed
MACEGRTMISDTYKVRVNLGLCALAAAITLAGCAGLPDQRLANEALKRGDTALAERNYKALADLGYSEAQVGLADIKVATRDPSQIKEAEATYRAAAATSPRAQARLGRLLVAKPDSTQAEREEAETLLKQAAKQGQSNTLIPLAMLYLSYPQSFPKVNAQQQIDQWRAAGNPEAGLAQVLLYRTQGTYDQHLGEVEKICKAALNTTDICYVELATVYQKRGQADQQAALLGQLKSAYARGAVPATRVDSVARVLADRSLGQTDEKTAKELLEQVAPANPASWVSLAQLVYDFPELGDTDQLMAYIDKGREAEQPRAELLLGRLYYEGKTLPADAQKAEQHLQAAAEAGEISAHYYLGQLYRRGYLGNVEPQKAVDHLLAAARGGQNSADYALAQLFSEGHGIRPQPGNAWVFAQLSQANPTPQSAELLQQLDQQLTPDQRNQAQQLLDQEKRARGSLAQGANSTLALEALQDDEKEVDGEDSL | failed
MNAIWIAVAAVSLLGLAFGAILGYASRRFAVEDDPVVEKIDEILPQSQCGQCGYPGCRPYAEAISCNGEKINRCAPGGEAVMLKIAELLNVEPQPLDGEAQEITPARMVAVIDENNCIGCTKCIQACPVDAIVGATRAMHTVMSDLCTGCNLCVDPCPTHCISLQPVAETPDSWKWDLNTIPVRIIPVEHHA | failed
MKALASRGTRNHLAGEAAENSVLRDYERRGYHLVRRRWRGRCGEIDLIARSGDEVVFVEVKQSRDFARAAESLGARQMKRLHAAAAEFLAEEPDGQLTPMRFDVALVDGTGRLEIVENAFGHG | failed
MNSFSSKNPEGCSLKVLIKYLLKLSVVPFLIGLGGFIVFVSLEILYQLSDLIVRHRVGIEKLFLMLYYYLPYFVAMGVPVGVLLAIFWTFSRLSEERELMAIQVHGISQKNLIVPFLILGALLSIAVFFLSDQIVPEYQSKAEEAMSKYVLKKPEVFVVENVISKIGDDQYFYVEKYDERTSTMWNVVIFRYGHEETIVTAKRVQKKGNDWYLFDGNYYTVDKDGFLKLDVHFSEMKLDITEDIEKLLRVGKTPKEMTGKELKEKIEFFKKVGVKPSPWVVELHSRYANSLTPIVIVLVGVPLSLLFQLRSKSWGVIFTFVLVVLYQGSGAWLSAMGKENLLNPVLAPWIPNIVFTIVGTLLFILLDTFFAYRITEFLSRLFFVAFIFTVSSLFSSQVVIVSDRMEKFPEEMVFHGSVEIAYKDMTVQASEATIQLTEEGKAKKLEASGGVIYRKADTILMGEHLIFYLENEKSVLTHIRGSTVLEIEKEKKKIYLSGEDLTSEGSRTIVDMGSISTCSETPPHYKLKARYIEIKENDYLLAKDVVFYLLEIPLFYQPIFFTSLSDKPQPFSVEVGVGNNPHLKTSYNVSYPSGLLYFSTKSVLSGGLSKELNWNHKMGSWSLNLDYKESTSHSVLVKIFDSKNTFLFSQKNEERIHQFERKEKILNGSLNVVLRKESDGEDSYILPRVTVKKVSVKTGVGTFSVDSFNHETRIEDQEKRNSGSVSLSFRSVPFLLFQSVSVSTTGKYLFENQNLDERTSYLKTDSIWDFQNLSLGKFLVLDDKIYAGVYRSNEDGYRVGNLFTTTLRVPLGPFSFESYYKLFTVSGENLRKFSQNESKNEVDLKVSFSYENFKSSLETTYDFLEKEFSDPYLKTSYSFKTGDITHTVDSTTRFVLDEISRSYTTWNFQQRMGAFLNRFYFTYYYREPHVKYVEDQMRIYGKNFLFMENPRITTYTKLSVDPFELDEFWIRGTFKKGESTHSLKMSYSSDNLEFSYQTKNGDPALEISFSLKDWNVEKFSLSVEKALHCLGTKISTSFGRNFTLESFSILFFIRDFPNSGIGFDTEEGIGLNVF | failed
MSENLAITIATIVVKLFAIIDPFSVLPFLLAIYEEANRDSQEKVSWNYMINKITIAILILLTLFSLIGRPLLDFLGLSAQALQIAGGVLLVYLGIDTMGGFQQLRFIRSLREAIVTPIATPLLVGPGTMTALISLSVDYNPLELVISSGIVTLLVYLSLLSGPYLVKILGQTGTVAAGRFTAIIIAAFGVQLILSGISQLNFK | failed
MLDKNVLNEIGSKVNEILASSPARDVEKNMRAMLTGAFARLDLVTREEFDVQQEVIKRTRIKLAELEEKVRKLEQQLQQPAEVVSSNETGDA | not failed
MKREEYLKNYLESYLRKKEVSLTEEEFNVILREFLRFAYNPEESGQEIADTADGSKTLIHKTYGEPYHSQTAGAIRESLYKFVRPSRILEKAKERKVIRILDVGFGLGYNLAVALKHLWEVNPKLRVEIISFEKELLKEFPILPEPYREIHEFLLERVPEYEGERLSLKVLLGDARKRIKEVENFKADAVFHDAFSPYKNPELWTLDFLSLIKERIDEKGYWVSYSSSLSVRKSLLTLGFKVGSSREIGRKRKGTVASLKAPVPPMEENEVRKLVLSPFAVPMRDEKLDKEPLEILIDYLLKVYKISR | not failed
MDKNIFNILKKYFGYSSFRRGQENIIQSILDGNDTFAIMPTGGGKSICYQVPALYMKGLTIVITPLISLMKDQVDTLRENGVNASYINSTLSSKETNDILMSALSGHLKILYVAPERLEQDYFRNAIKDLTISMVAIDEAHCVSQWGHDFRVSYKRIVPFINIFDKRPIVAAFTATATDEVKKDIINLLELKEPNCFITGFDRDNLFFSIVKNENKFDFITKYLSKHKELSGIIYAATRKEVDSLHQKLISQGYSVGKYHAGMGDKERSESQDLFLYDETKLMIATNAFGMGIDKSNVRFVIHYNMPKNLESYYQEAGRAGRDGEKSECIILFSGQDIQIQKFLIKQSIPSFDRQRIELKKLNDMINYCMTTSCLRKYILNYFGENYEVENCDNCINCTGNVEIVDITLEAQKIISCIYRMGQNFGVTMIAEVLKGSKNSKVLRFNFDKLSTYGIMKDCTLKQITNLINTLIADGYLYLSDSEYATVKMSQKSIEVLKGYKKVVQKIHIVEELSLSTDNTLFEILKALRLEIARRENVPPYIIFSDSVLSEMCKYYPKDKNSMLQIKGVGEIKYNKYGEIFEEKIREYIKETNLTPEDNNKGTLKVPELLSKKIPTHIETFNLYKKGITIADMAKIRNLSIPTIQEHILKCANEGLNVNLDAYIPAEYKDLIYEKIRILGTSKLRPIKDALPDDVDYMAIKAAICKYTSKNKAI | failed
LSNLETAKAMIAAYNAQDVDTYVSYMTDDACEANYRGDVVREGKEGTRSGLAAAFARWPQNHAEIKDAQQVGTYVLMREHVTRGPATDGSPLVEPFDVVAVYSFEGDKCSRVEFIR | not failed
MGSRDLISSLPDEILGKVLSLLPTKRAASTAVLSKRWNNLPALVDKLDINDAIGGPGGFPEFIDKTLALLTNSTTIKRTSLNNEFQYGESQVNTWIRSFLERGCLQLYLNAQSLYTIDTEFFTSNTLVELTITGGFSPDGLLPPGGVFFPKLKTLSLVLMTFVDSDMYELFISGCPLLEEFLLRNDEIEIPPVWNALVSSPSIKRLTIVHHFPNYREAHDGCWFRTPNLVYLDYSSYVPDWYEVDLGSLVEARLDLRSWERLRDEKAGGYGDCDSVYDDEEYPDDPILGDVTNLVTGLSNIKTLHLSPDSLEVFYFCCKSMPVFHNLLTLSFESAKKEAGQCCHFSSISLLT | failed
MAQHTVYFPDAFLTQMREAMPSTLSFDDFLAACQRPLRRSIRVNTLKISVADFLQLTAPYGWTLTPIPWCEEGFWIERDNEDALPLGSTAEHLSGLFYIQEASSMLPVAALFADGNAPQRVMDVAAAPGSKTTQISARMNNEGAILANEFSASRVKVLHANISRCGISNVALTHFDGRVFGAAVPEMFDAILLDAPCSGEGVVRKDPDALKNWSPESNQEIAATQRELIDSAFHALRPGGTLVYSTCTLNQEENEAVCLWLKETYPDAVEFLPLGDLFPGANKALTEEGFLHVFPQIYDCEGFFVARLRKTQAIPALPAPKYKVGNFPFSPVKDREAGQIRQAATGVGLNWDENLRLWQRDKELWLFPVGIEALIGKVRFSRLGIKLAETHNKGYRWQHEAVIALASPDNMNAFELTPQEAEEWYRGRDVYPQAAPVADDVLVTFQHQPIGLAKRIGSRLKNSYPRELVRDGKLFTGNA | not failed
MGHHHHHHSHMSRVPPTVTNAVSWRSEGIKYKKNEVFIDVIESVNLLVNANGSVLLSEIVGTIKLKVFLSGMPELRLGLNDRVLFELTGRSKNKSVELEDVKFHQCVRLSRFDNDRTISFIPPDGDFELMSYRLSTQVKPLIWIESVIEKFSHSRVEIMVKAKGQFKKQSVANGVEISVPVPSDADSPRFKTSVGSAKYVPERNVVIWSIKSFPGGKEYLMRAHFGLPSVEKEEVEGRPPIGVKFEIPYFTVSGIQVRYMKIIEKSGYQALPWVRYITQSGDYQLRTS | failed
MNPIILALFDVSIFILLAEILSSLVQKYGLPKLIGELLAGMIIGPYALGSLLNQLLGFPLIGINSYIEFLAEFSVILLIFASGLEHGIAPIKSSGILGFLGATFGALLPFFAAYYFYISSFGLDSALILGTAMGATSLAAVASIIEEGKLKGKGINFMVSSAAADDVVDLLLLSVVIAILQGESTSVTSISLKIIALVVIWVVILVVSIILIPKITDRISDKYIEEFPLAVLFGLTLLMVSLGYSPIISAFVAGVAFANSVKNSKIKEISSTLLSVFGPLFFVYIGAEVNFLTLNLNTVILSLELTAIATIFKWLGIFPFALAYLRNAKAANTVALGMVPRGETGLVIASLGLSYNALNQEEFEGIVFMSIFTTLIGSALFKIYAKKHLVS | failed
TGALMASSPQDIKFQDLVVFILEKKMGTTRRALLMELARRKGFRVENELSDSVTHIVAENNSGSDVLEWLQAQKVQVSSQPELLDVSWLIECIGAGKPVEMTGKHQL | not failed
